The source of these data is article PMC5740175.

Series [1] concerns IRP1 (iron regulatory protein 1). Nature of the series: EMSA. As to conditions: 25 mM Tris/HCl pH 7.4, 40 mM KCl, 1% Triton X-100, protease inhibitor (EDTA-free), 200 ng IRP1, 100 ng labeled probe, 15 min room temperature, then 50 ng …. For orientation: A gel shift assay detects complexes by their altered migration in electrophoresis.
Series [2] has the same test system. The series can be described thus: competition EMSA. As to conditions: 25 mM Tris/HCl pH 7.4, 40 mM KCl, 1% Triton X-100, protease inhibitor (EDTA-free); 200 ng IRP1, 100 ng labeled probe; 15 min room temperature, then 50 ng ….

In series [1] (direct, minimal binding, reduction of almost 95%, mean of 4, heparin), FTL 5' IRE +39ΔC yielded a binding signal (% of WT bound) of 5.
Broadly, the Kd is the constant that tells how readily two partners part at equilibrium. With FTL 5' IRE WT, the dissociation constant (Kd) in series [2] was 0.5 nM. The binding signal (% of WT bound) in series [1] was 100.
With FTL 5' IRE Ghent +49A>G, the Kd in series [2] was determined as 2.7 nM. This substance also displayed a binding signal (% of WT bound) in series [1] (direct, 75% decrease, mean of 4, heparin) of 25.
